According to patent US20110008375A1, “Uses of Myostatin Antagonists” (AMGEN INC., priority 2005, published 2011):

T1: myostatin (Homo sapiens, UniProt O14793)
T1 construct: To produce mature myostatin, the pooled promyostatin was enzymatically cleaved between the propeptide and mature myostatin C terminal; made in house; host or cells: E. coli K-12 strain 2596 (ATCC # 202174)
T1 sequence (O14793 267-375): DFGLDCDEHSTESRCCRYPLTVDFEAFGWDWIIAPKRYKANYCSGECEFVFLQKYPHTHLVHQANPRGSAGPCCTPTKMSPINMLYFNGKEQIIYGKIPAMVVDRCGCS

B1: 2xmTN8-19-21 (protein)
chain: GGGGGAQSEYQGLCTRWPWMCPPQGWKLEGSGSATGGSGSTASSGSGSATGSEYQGLCTRWPWMCPPQGWKLE
modifications: Peptibody
B2: 2xmTN8-19-22 (protein)
chain: GGGGGAQTFSQGHCTRWPWMCPPQGWGLEGSGSATGGSGSTASSGSGSATGTFSQGHCTRWPWMCPPQGWGLE
modifications: Peptibody
B3: 2xmTN8-19-7 (protein)
chain: GGGGGAQLADHGQCIRWPWMCPPEGWELEGSGSATGGSGSTASSGSGSATGLADHGQCIRWPWMCPPEGWELE
modifications: Peptibody
B4: ActRIIB/Fc: soluble receptor fusion protein actRIIB/Fc (R&D Systems), recombinant human activin receptor IIB/Fc chimera (protein)
chain: SGRGEAETRECIYYNANWELERTNQSGLERCEGEQDKRLHCYASWRNSSGTIELVKKGCWLDDFNCYDRQECVATEENPQVYFCCCEGNFCNERFTHLPEAGGPEVTYEPPPTAPT
modifications: left off: a dimerising Fc or GST
B5: 2x mTN8-19-7: affinity matured 2× peptibody (two peptides in tandem), TN8-19 family, human Fc (protein)
chain: GGGGGAQLADHGQCIRWPWMCPPEGWELEGSGSATGGSGSTASSGSGSATGLADHGQCIRWPWMCPPEGWELE
modifications: Peptibody
B6: 2x mTN8-19-33: affinity matured 2× peptibody of the TN8-19 family, human Fc (protein)
chain: GGGGGAQPESQGHCTRWPWMCPPQGWGLEGSGSATGGSGSTASSGSGSATGPESQGHCTRWPWMCPPQGWGLE
modifications: Peptibody
B7: 2×mTN8-19-22: affinity matured 2× peptibody of the TN8-19 family, human Fc (protein)
chain: GGGGGAQTFSQGHCTRWPWMCPPQGWGLEGSGSATGGSGSTASSGSGSATGTFSQGHCTRWPWMCPPQGWGLE

Biological target: T1, myostatin
Experiment: C2C12 pMARE-luc cell based myostatin activity assay
Conditions: not given
Source text: A myostatin-responsive reporter cell line was generated by transfection of C2C12 myoblast cells (ATCC No: CRL-1772) with a pMARE-luc construct. The pMARE-luc construct was made by cloning twelve repeats of the CAGA sequence, representing the myostatin/activin response elements (Dennler et al. EMBO 17: 3091-3100 (1998)) into a pLuc-MCS reporter vector (Stratagene cat #219087) upstream of the TATA box. The myoblast C2C12 cells naturally express myostatin/activin receptors on its cell surface. When myostatin binds the cell receptors, the Smad pathway is activated, and phosphorylated Smad binds to the response element (Macias-Silva et al. Cell 87:1215 (1996)), resulting in the expression of the lucerase gene. Luciferase activity is then measured using a commercial luciferase reporter assay kit (cat #E4550, Promega, Madison, Wis.) according to manufacturer's protocol. A stable line of C2C12 cells that had been transfected with pMARE-luc (C2C12/pMARE clone #44) was used to measure myostatin activity according to the following procedure.
Equal numbers of the reporter cells (C2C12/pMARE clone #44) were plated into 96 well cultures. A first round screening using two dilutions of peptibodies was performed with the myostatin concentration fixed at 4 nM. Recombinant mature myostatin was pre-incubated for 2 hours at room temperature with peptibodies at 40 nM and 400 nM respectively. The reporter cell culture was treated with the myostatin with or without peptibodies for six hours. Myostatin activity was measured by determining the luciferase activity in the treated cultures. This assay was used to initially identify peptibody hits that inhibited the myostatin signaling activity in the reporter assay. Subsequently, a nine point titration curve was generated with the myostatin concentration fixed at 4 nM. The myostatin was preincubated with each of the following nine concentrations of peptibodies: […], 0.4 nM, 4 nM, 20 nM, 40 nM, 200 nM, 400 nM, 2 uM and 4 uM for two hours before adding the mixture to the reporter cell culture. The IC50 values were for a number of exemplary peptibodies are provided in Tables III and for affinity matured peptibodies, in Table VIII.

| Molecule | inhibition of myostatin activity in cell-based assay |
| --- | --- |
| L2: peptibody: peptide MEMLDSLFELLKDMVPISKA fused to human IgG1 Fc | inhibit myostatin activity |

Same assay, conditions: affinity matured peptibodies; a range of values is given

| Molecule | IC50 [nM] |
| --- | --- |
| mTN8-19-13 (MWQQGHCTRWPWMCPPQGWG) | 20 |
| mTN8-19-4 (MITQGQCTRWPWMCPPQPSG) | 16.7 |
| mL15-7 (QVDSLQQVLLWLEHKLALGPQV) | 32.8 |
| mL20-2 (TQRDMSMLDGLLEVLDQLRQQR) | 123 |
| mTN8-19-34 (IPAHGHCTRWPWMCPPQRWR) | 5.03 to 5.07 |
| mTN8-19-29 (TLVQGHCTRWPWMCPPQRWV) | 6.36 |
| mTN8-19-12 (SYWQGQCTRWPWMCPPQWRG) | 980 |
| mTN8-19-6 (GVNQGQCTRWRWMCPPNGWE) | 17.3 |
| mTN8-19-16 (YQTQGLCTRWPWMCPPQSQR) | 4.65 |
| mL15-9 (QIEMLESLLDLLRDMVPMSNAF) | 354 |
| mTN8-19-10 (VVTQGHCTLWPWMCPPQRWR) | 5.25 to 7.4 |
| mTN8-19-11 (IYPHDQCTRWPWMCPPQPYP) | 28.7 |
| mTN8-19-2 (YPEQGLCTRWPWMCPPQTLA) | 7.51 to 34.4 |
| mTN8-19-14 (EFTQWHCTRWPWMCPPQRSQ) | 4.07 to 6.56 |
| mTN8-19-9 (TQTHAQCTRWPWMCPPQWEG) | 18.8 to 23 |
| mTN8-19-24 (VAEEWHCRRWPWMCPPQDWR) | 1.67 to 2.93 |
| mTN8-19-28 (SGPQGHCTRWPWMCAPQGWF) | 4.39 |
| mTN8-19-23 (PGAHDHCTRWPWMCPPQSRY) | 6.58 |
| mTN8-19-27 (ADTQGHCTRWPWMCPPQHWF) | 4.84 to 4.92 |
| mTN8-19-5 (AGAQEHCTRWPWMCAPNDWI) | 3.5 to 7.74 |
| mL20-4 (MQHDMSMLYGLVELLESLGHQI) | 160 |
| mL20-3 (TSRDMSLLWELLEELDRLGHQR) | 158 |
| B1 | 0.828 to 1.43 |
| B2 | 0.994 to 1.22 |
| B3 | 0.857 to 2.65 |

Same assay, conditions: pMARE luc cell-based assay; Table III

| Molecule | IC50 [nM] |
| --- | --- |
| TN12-34: peptibody: peptide AHWCEQGPWRYGNICMAY fused to human IgG1 Fc | ~30 |
| Linear-20: peptibody: peptide YREMSMLEGLLDVLERLQHY fused to human IgG1 Fc | ~11 |

Biological target: T1, myostatin
Experiment: BIAcore affinity analysis on immobilized myostatin
Assay type: binding
Conditions: Biacore assay; Table III
Procedure: An affinity analysis of each candidate myostatin peptibody was performed on a BIAcore®3000 (Biacore, Inc., Piscataway, N.J.), apparatus using sensor chip CM5, and 0.005 percent P20 surfactant (Biacore, Inc.) as running buffer.
Direct binding assays were used to screen and rank the peptibodies in order of their ability to bind to immobilized myostatin. Binding assays were carried by injection of two concentrations (40 and 400 nM) of each candidate myostatin-binding peptibody to the immobilized myostatin surface at a flow rate of 50 μl/min for 3 minutes. After a dissociation time of 3 minutes, the surface was regenerated. Binding curves were compared qualitatively for binding signal intensity, as well as for dissociation rates. Peptibody binding kinetic parameters including ka (association rate constant), kd (dissociation rate constant) and KD (dissociation equilibrium constant) were determined using the BIA evaluation 3.1 computer program (Biacore, Inc.). The lower the dissociation equilibrium constants (expressed in nM), the greater the affinity of the peptibody for myostatin.

| Molecule | Kd [nM] |
| --- | --- |
| B4 | ~7 |

Test system: CD1 nu/nu mice
Experiment: In vivo anabolic activity in CD1 nu/nu mouse model
Conditions: CD1 nu/nu male mice; 1 and 3 mg/kg twice weekly, 35 days; 2× vs 1× peptibody or control
Source text: The CD1 nu/nu mouse model (Charles River Laboratories, Massachusettes) was used to determine the in vivo efficacy of the peptibodies of the present invention which included the human Fc region (huFc). This model responded to the inhibitors of the present invention with a rapid anabolic response which was associated with increased dry muscle mass and an increase in myofibrillar proteins but was not associated with accumulation in body water content.
A group of 10 8 week old CD1 nu/nu mice were treated twice weekly or once weekly with dosages of 1 mg/kg, 3 mg/kg and 10 mg/kg (subcutaneous injection). The control group of 10 8 week old CD1 nu/nu mice received a twice weekly (subcutaneous) injection of huFc (vehicle) at 10 mg/kg. The animals were weighed every other day and lean body mass determined by NMR on day 0 and day 13. The animals are then sacrificed at day 14 and the size of the gastrocnemius muscle determined.
In another example, the 1×mTN8-19-32 peptibody was administered to CD1 nu/nu mice in a biweekly injection of 1 mg/kg, 3 mg/kg, 10 mg/kg, and 30 mg/kg compared with the huFc control (vehicle).
CD1 nu/nu male mice (10 animals per group) were treated with twice weekly injections of 1 mg/kg and 3 mg/kg of 1×mTN8-19-7 and 2×mTN8-19-7 for 35 days, while the control group (10 animals) received twice weekly injections of huFc (3 mg/kg).

| Molecule | body weight gain (FIG. 5) | lean carcass weight at necropsy (FIG. 5) |
| --- | --- | --- |
| B5 | greater body weight gain | greater |

Test system: C57B1/6 mice
Experiment: Gripping strength in normal C57B1/6 mice
Assay type: in vivo, mouse
Conditions: 30 days s.c. 5 mg/kg per week, measured day 18 of recovery
Procedure: The animals were allowed to recover without any further injections. Gripping strength was measured on day 18 of the recovery period. Griping strength was measured using a Columbia Instruments meter, model 1027 dsm (Columbus, Ohio).

| Molecule | increase in gripping strength compared with control-treated mice [%] |
| --- | --- |
| B6 | 14 |
| B5 | 15 |

Test system: not listed separately
Experiment: In vivo pharmacokinetics in CD1 nu/nu mice
Design: species or system mouse
Conditions: peptibodies without LE sequences, 10 mg/kg and 5 mg/kg
Procedure: In vivo pharmacokinetics experiments were performed using representative peptibodies without the LE sequences. 10 mg/kg and 5 mg/kg dosages were administered to CD1 nu/nu mice and the following parameters determined. Cmax (ug/mL), area under the curve (AUC) (ug-hr/mL), and half-life (hr).

| Molecule | half-life |
| --- | --- |
| B7 | about 85.2 hours |
| B5 | about 106 hours |
